Test results as given in US20200368208, “Protein Translation Inhibitors and Uses Thereof” (University of Baltimore, Maryland, published 2020).

Assays:
[1] = target: T1, hnRNP A18 (CIRP), full length, GST fusion (UniProt Q14011 Q14011:1-172); experiment: FP; 25 C, 30 min; binding competed by small molecules (compound 1 IC50 6.4 uM; compounds 5, 2, 3, 4 IC50 2.9, 15, 13, 39 uM); no Kd given; details: tags: GST; label: 3' T-fluorescein (position 5 of thymine, 6-carbon spacer)
T1 sequence: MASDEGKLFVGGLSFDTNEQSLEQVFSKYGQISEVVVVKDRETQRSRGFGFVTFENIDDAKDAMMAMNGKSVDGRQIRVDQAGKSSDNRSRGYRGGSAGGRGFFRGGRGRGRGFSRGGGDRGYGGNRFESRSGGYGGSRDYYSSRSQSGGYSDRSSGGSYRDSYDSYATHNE

[2] = target: T2, hnRNP A18 (CIRP), full length, His-tagged (UniProt Q14011 Q14011:1-172); experiment: EMSA; 1 ug protein in 20 ul; competed by compounds 1-6; details: tags: His; label: 3' biotin
T2 sequence: T1 sequence
Description: RNA band shifts were performed according to the manufacturer recommendations (LightShift Chemiluminescent RNA EMSA kit, Thermo Scientific, Rockford, Ill.). Briefly recombinant His-hnRNP A18 or His-hnRNP A1 (1 μg) were incubated with biotinylated RNA (hnRNP A18 motif 1, IRE 28 or 51 nucleotides) in 20 μl and run on native polyacrylamide gels transfer to nylon probes and hybridize with streptavidin HRP antibody.

B1: hnRNP A18 motif 1 fluorescein (ssRNA)
RNA: GCAGAUCCAGGGUGGGAUUUUCUUGAGGAAGUUACAAAUAAGCUUGUUACA
B1: binds [1].

B2: hnRNP A18 motif 1 biotin (ssRNA)
RNA: B1 RNA
B2: binds [2].
